Measured values published in paper PMC12148503, “Molecular Basis of Interchain Disulfide Bond Formation in BMP-9 and BMP-10” (Journal of molecular biology, 2025).
Where a chain is given by its changes, count along the chain named. Names may count otherwise.

Experiments:
[1] = biological target: BMP-9 monomer (cysteinylated BMP-9 growth factor) (human) (UniProt Q9UK05)
[2] = biological target: BMP-9 disulfide-linked dimer (wild-type growth factor) (human) (UniProt Q9UK05)
[3] = biological target: BMP-10 monomer (cysteinylated BMP-10 growth factor) (human) (UniProt O95393)
[4] = biological target: BMP-10 disulfide-linked dimer (growth factor) (human) (UniProt O95393)
[5] = biological target: the molecule itself; assay: crystal structure; BMP-9 disulfide-linked dimers (wild type and mutants) at neutral pH; 1 M NaCl, glycerol, 0.1 M HEPES pH 7.4; multi-crystal data split into fractions
[6] = biological target: the molecule itself; assay: non-reducing SDS-PAGE with densitometry; IMAC-purified pro-proteins from expi293 conditioned medium, non-reduced against reduced; bands of disulfide-linked dimer and monomer
[7] = biological target: T1, Pro-(X)-BMP-10 S385G, R353K, O95393; assay: SDS-PAGE densitometry; conditions: chain shown with the change; IMAC column purified Pro-BMP-10
T1 chain: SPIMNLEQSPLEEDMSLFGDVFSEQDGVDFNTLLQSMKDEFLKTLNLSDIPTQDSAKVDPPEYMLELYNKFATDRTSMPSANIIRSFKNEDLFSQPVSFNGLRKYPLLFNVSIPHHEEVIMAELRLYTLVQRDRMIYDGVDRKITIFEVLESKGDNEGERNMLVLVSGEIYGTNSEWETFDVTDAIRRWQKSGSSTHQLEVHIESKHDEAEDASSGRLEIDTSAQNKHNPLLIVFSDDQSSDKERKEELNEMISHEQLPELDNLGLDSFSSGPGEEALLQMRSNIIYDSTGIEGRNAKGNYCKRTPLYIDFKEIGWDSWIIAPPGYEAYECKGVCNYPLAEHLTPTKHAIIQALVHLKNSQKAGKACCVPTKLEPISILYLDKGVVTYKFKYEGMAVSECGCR

[8] = biological target: T2, Pro-(X)-BMP-10 S385G, O95393; assay: SDS-PAGE densitometry; conditions: chain shown with the change; IMAC column purified Pro-BMP-10
T2 chain: T1 chain with K332R

[9] = biological target: T3, Pro-(X)-BMP-10 R353K, O95393; assay: SDS-PAGE densitometry; conditions: chain shown with the change; IMAC column purified Pro-BMP-10
T3 chain: T1 chain with G364S

BMP-9 monomer (cysteinylated BMP-9 growth factor) (from UniProt Q9UK05 320-429) (ligand)
EC50 of pSMAD1/5/9 (western blot) in serum-starved HUVECs treated for 45 min with BMP-9 monomer, 0.01-54 ng/mL [1]: 124 pM

BMP-9 disulfide-linked dimer (wild-type growth factor) (from UniProt Q9UK05 320-429) (ligand)
EC50 of pSMAD1/5/9 (western blot) in serum-starved HUVECs treated for 45 min with BMP-9 disulfide-linked dimer, 0.001-1.62 ng/mL [2]: 3.3 pM

B1: BMP-10 monomer (cysteinylated BMP-10 growth factor) (ligand)
chain: NAKGNYCKRTPLYIDFKEIGWDSWIIAPPGYEAYECRGVCNYPLAEHLTPTKHAIIQALVHLKNSQKASKACCVPTKLEPISILYLDKGVVTYKFKYEGMAVSECGCR
modifications: cysteinylated (+119 Da; the paper places it on the interchain cysteine)
EC50 of pSMAD1/5/9 (western blot) in serum-starved HUVECs treated for 45 min with BMP-10 monomer, 0.01-54 ng/mL [3]: 164 pM

B2: BMP-10 disulfide-linked dimer (growth factor) (ligand)
chain: B1 chain
modifications: interchain disulfide
EC50 of pSMAD1/5/9 (western blot) in serum-starved HUVECs treated for 45 min with BMP-10 disulfide-linked dimer, 0.001-1.62 ng/mL [4]: 5.9 pM

B3: BMP-9 G389S, K357R disulfide-linked dimer (ligand, human, UniProt Q9UK05 320-429, looked up)
chain: SSGAGSHCQKTSLRVNFEDIGWDSWIIAPKEYEAYECRGGCFFPLADDVTPTKHAIVQTLVHLKFPTKVSKACCVPTKLSPISVLYKDDMGVPTLKYHYEGMSVAECGCR
modifications: interchain disulfide Cys-392 to Cys-392'
notes: Human BMP-9 growth factor released by factor Xa from the G389S, K357R mutant of Pro-(X)-BMP-9 (proBMP9 residues 23-429, A321S, RRKR replaced by IEGR); also called BMP-9 double-mutant; BMP-9 G389S K357R Dimer; source: expi293 (suspension HEK293), secreted as Pro-(X)-BMP-9 mutant; IMAC, factor Xa digestion, C18 reverse phase
binding result [5]: binds

B4: BMP-9 G389S disulfide-linked dimer (ligand, human, UniProt Q9UK05 320-429, looked up)
chain: B3 chain with R38K
modifications: interchain disulfide Cys-392 to Cys-392'
notes: Human BMP-9 growth factor released by factor Xa from the G389S mutant of Pro-(X)-BMP-9 (proBMP9 residues 23-429, A321S, RRKR replaced by IEGR); also called BMP-9 G389S Dimer; source: expi293 (suspension HEK293), secreted as Pro-(X)-BMP-9 mutant; IMAC, factor Xa digestion, C18 reverse phase
binding result [5]: binds

B5: Pro-(fr)-BMP-9 (natural protein, human, UniProt Q9UK05 23-429, looked up)
chain: KPLQSWGRGSAGGNAHSPLGVPGGGLPEHTFNLKMFLENVKVDFLRSLNLSGVPSQDKTRVEPPQYMIDLYNRYTSDKSTTPASNIVRSFSMEDAISITATEDFPFQKHILLFNISIPRHEQITRAELRLYVSCQNHVDPSHDLKGSVVIYDVLDGTDAWDSATETKTFLVSQDIQDEGWETLEVSSAVKRWVRSDSTKSKNKLEVTVESHRKGCDTLDISVPPGSRNLPFFVVFSNDHSSGTKETRLELREMISHEQESVLKKLSKDGSTEAGESSHEEDTDGHVAAGSTLARRKRSSGAGSHCQKTSLRVNFEDIGWDSWIIAPKEYEAYECKGGCFFPLADDVTPTKHAIVQTLVHLKFPTKVGKACCVPTKLSPISVLYKDDMGVPTLKYHYEGMSVAECGCR
notes: Human proBMP9 residues 23-429 with the natural furin site; Partially processed by furin: the sample holds unprocessed pro-protein, prodomain and growth factor (12 and 24 kDa); also called Pro-BMP-9 with unmodified furin processing site; wild-type BMP-9; source: expi293 (suspension HEK293), secreted; purified from conditioned medium by IMAC; not shown: 8xHis, N-terminal, kept
binding result [6]: binds

B6: Pro-(X)-BMP-9 G389S (natural protein, human, UniProt Q9UK05 23-429, looked up)
chain: B5 chain with R294I, R295E, K296G, G367S
notes: Human proBMP9 residues 23-429; mutant based on Pro-(X)-BMP-9; also called G389S BMP-9; source: expi293 (suspension HEK293), secreted; purified from conditioned medium by IMAC; not shown: 8xHis, N-terminal, kept
binding result [6]: binds

B7: Pro-(X)-BMP-9 G389S, K357R (natural protein, human, UniProt Q9UK05 23-429, looked up)
chain: B5 chain with R294I, R295E, K296G, K335R, G367S
notes: Human proBMP9 residues 23-429; mutant based on Pro-(X)-BMP-9; also called G389S, K357R BMP-9; BMP-9 double mutant; source: expi293 (suspension HEK293), secreted; purified from conditioned medium by IMAC; not shown: 8xHis, N-terminal, kept
binding result [6]: binds

B8: Pro-(X)-BMP-9 K357R (natural protein, human, UniProt Q9UK05 23-429, looked up)
chain: B5 chain with R294I, R295E, K296G, K335R
notes: Human proBMP9 residues 23-429; mutant based on Pro-(X)-BMP-9; also called K357R BMP-9; source: expi293 (suspension HEK293), secreted; purified from conditioned medium by IMAC; not shown: 8xHis, N-terminal, kept
binding result [6]: binds

B9: Pro-(X)-BMP-9 (natural protein, human, UniProt Q9UK05 23-429, looked up)
chain: B5 chain with R294I, R295E, K296G
notes: Human proBMP9 residues 23-429; Behind the rat serum albumin signal peptide, the 8xHis tag and a factor Xa site (IEGR); Secreted unprocessed as a mixture of disulfide-linked dimers and monomers; also called Pro-BMP-9 with the furin site replaced by a factor X site; Pro-BMP-9 wild-type; source: expi293 (suspension HEK293), secreted; purified from conditioned medium by IMAC; not shown: 8xHis, …
binding result [6]: binds

B10: Pro-(fr)-TGF-β2 (natural protein, human, UniProt P61812-1 19-414, looked up)
chain: LSLSTSSTLDMDQFMRKRIEAIRGQILSKLKLTSPPEDYPEPEEVPPEVISIYNSTRDLLQEKASRRAAACERERSDEEYYAKEVYKIDMPPFFPSENAIPPTFYRPYFRIVRFDVSAMEKNASNLVKAEFRVFRLQNPKARVAEQRIELYQILKSKDLTSPTQRYIDSKVVKTRAEGEWLSFDVTDAVHEWLHHKDRNLGFKISLHCPCCTFVPSNNYIIPNKSEELEARFAGIDGTSTYTSGDQKTIKSTRKKNSGKTPHLLLMLLPSYRLESQQTNRRKKRALDAAYCFRNVQDNCCLRPLYIDFKRDLGWKWIHEPKGYNANFCAGACPYLWSSDTQHSRVLSLYNTINPEASASPCCVSQDLEPLTILYYIGKTPKIEQLSNMIVKSCKCS
notes: Human proTGF-β2 residues 19-414; Behind the mouse Ig signal peptide and the 8xHis tag, no processing site after the tag; Furin processing incomplete; also called Pro-TGF-β2; source: expi293 (suspension HEK293), secreted; purified from conditioned medium by the histidine tag (IMAC); not shown: 8xHis, N-terminal, kept
binding result [6]: binds

B11: Pro-(fr)-Act-A (natural protein, human, UniProt P08476 27-426, looked up)
chain: EGHSAAPDCPSCALAALPKDVPNSQPEMVEAVKKHILNMLHLKKRPDVTQPVPKAALLNAIRKLHVGKVGENGYVEIEDDIGRRAEMNELMEQTSEIITFAESGTARKTLHFEISKEGSDLSVVERAEVWLFLKVPKANRTRTKVTIRLFQQQKHPQGSLDTGEEAEEVGLKGERSELLLSEKVVDARKSTWHVFPVSSSIQRLLDQGKSSLDVRIACEQCQESGASLVLLGKKKKKEEEGEGKKKGGGEGGAGADEEKEQSHRPFLMLQARQSEDHPHRRRRRGLECDGKVNICCKKQFFVSFKDIGWNDWIIAPSGYHANYCEGECPSHIAGTSGSSLSFHSTVINHYRMRGHSPFANLKSCCVPTKLRPMSMLYYDDGQNIIKKDIQNMIVEECGCS
notes: Human proINHBA residues 27-426; The results call it N-terminally histidine-tagged and purified by that tag; the methods say 'with no tag or processing site'; Furin processing incomplete; also called Pro-Activin-A; Pro-Act-A; source: expi293 (suspension HEK293), secreted; purified from conditioned medium by the histidine tag (IMAC); not shown: His tag, N-terminal, kept
binding result [6]: binds

B12: Pro-(X)-BMP-10, O95393 S385G; R353K (protein)
chain: T1 chain
other: disulfide-linked dimer over monomer ratio [7]: 0.41

B13: Pro-(fr)-BMP-10 (natural protein, human, UniProt O95393 22-424, looked up)
chain: T1 chain with G291A, I292R, E293I, G294R, K332R, G364S
notes: Human proBMP10 residues 22-424 with the natural furin site; Partially processed by furin: the sample holds unprocessed pro-protein, prodomain and growth factor (12 and 24 kDa); also called Pro-BMP-10 with unmodified furin processing site; wild-type BMP-10; source: expi293 (suspension HEK293), secreted; purified from conditioned medium by IMAC; not shown: 8xHis, N-terminal, kept
binding result [6]: binds

B14: Pro-(X)-BMP-10, O95393 S385G (protein)
chain: T1 chain with K332R
other: disulfide-linked dimer over monomer ratio [8]: 0.42

B15: Pro-(X)-BMP-10, O95393 R353K (protein)
chain: T1 chain with G364S
other: disulfide-linked dimer over monomer ratio [9]: 0.9
